Test results taken from the DeepSol protein solubility set.

assay: soluble on expression in E. coli; label from the status in PepcDB or PDB records

Sequence	soluble on expression in E. coli
MTVPSIVLNDGNSIPQLGYGVYKVPPADTQRAVEEALEVGYRHIDTAAIYGNEEGVGAAIAASGIARDDLFITTKLWNDRHDGDEPAAAIAESLAKLALDQVDLYLVHWPTPAADNYVHAWEKMIELRAAGLTRSIGVSNHLVPHLERIVAATGVVPAVNQIELHPAYQQREITDWAAAHDVKIESWGPLGQGKYDLFGAEPVTAAAAAHGKTPAQAVLRWHLQKGFVVFPGSVRREHLEENLDVFDFDLTDTEIAAIDAMDPGDGSGRVSGHPDEVD	soluble
MTVQQSGRRERKKAATRQKIADTALRLFLERGYDAVGIRDVAAEADVAVTTLFSHFASKEALVFEQDEDFEHRLTRAVTDRAPHEPLIPALRREILALVRHCTADSAAPIWRMIDASPALRKYDESVRLRHAEALATAIAADPTRTRSETAARTLARFVIDAYSLSREAPDPEAALDEIFPMIEAAWAAARPPHPT	not soluble
MTVRILAVCGNGQGSSMIMKMKVDQFLTQSNIDHTVNSCAVGEYKSELSGADIIIASTHIAGEITVTGNKYVVGVRNMLSPADFGPKLLEVIKAHFPQDVK	not soluble
MTVSDHPQTVSQPDPESESRPSKTRLKQEMHALQALGERLVELEPARIAELDLPEKLAEALLEARKITSHGARRRHLQFIGKLMRAVDPLPVQEKLDAWQHTGMRHTAWLHQLERWRDRLISDETAVTEFVQTYPHTDVRQLRTLLRNIEKEKLAGKPPHNFRALFQLLRQIIPEIPG	not soluble
MTVSDRELEECIRALLDARADSASICPSDVARAVAPDDWRPLMEPVREAAGRLADAGEVEVTQKGAVVDPRSARGPIRIRWTRTD	soluble
MTVSTPPSIATGNAPSPDYRVEILSESLPFIQKFRGKTIVVKYGGAAMTSPELKSSVVSDLVLLACVGLRPILVHGGGPDINRYLKQLNIPAEFRDGLRVTDATTMEIVSMVLVGKVNKNLVSLINAAGATAVGLSGHDGRLLTARPVPNSAQLGFVGEVARVDPSVLRPLVDYGYIPVIASVAADDSGQAYNINADTVAGELAAALGAEKLILLTDVAGILENKEDPSSLIKEIDIKGVKKMIEDGKVAGGMIPKVKCCIRSLAQGVKTASIIDGRRQHSLLHEIMSDEGAGTMITG	soluble
MTVTDHILPTATNGRPPGLIIAAPSTNSGKTTVTLALHAALRRRSLTVQPYKCGPDYIDPAFHEIAAGRPCYNLDSWAFGQDRITYLLDAAAGADLCLAEGVMGLFDGGSARGAWGNGATADIAAFTGWPVVLVIDVAGQAQSAAALALGFARYRSDVRIAGVILNNVASARHEALVRDGFAAQDIPVLGGFERQRDLTLKNRHLGLVQARETARLDIRLQQLADSAVRGIDLDALIRAAQPARPIASTIRPLTPPGQRIALAHDDAFSFIYPHLTAGWRAAGAEIVPFSPLNDEGPDPSCDAAWLPGGYPELHAGRLAAATRFKAALGAFAETRAVHGECGGYMTLGAGLIDADGTRHAMAGLLGLETDFASRKLHLGYRLATLHADAAGKAAGSVLRGHEYHYARVVTVADEPLAEIRDPAGQLTDETGSRRGHVTGTFFHLIDVAEEAIALEHHHHHH	not soluble
MTVYKGSKKEAKPKECLLFFDKKTNTVRLEKITSNINVKKTRDLDQGTELALKRGIERLRTSSNNQRSGPSSPEEKAKIQKQMQRDTSDSSSDSDGSSDSDKSNGDSSDDEDESEKILLEEMKKPKPYTEREPAPPSSSNTYNHKESHVAPYISSSGNKNKDSEEKYGLALSESSDEDD	not soluble
MTYCLGIVTQAGLIMAADSRTNAGIDYISTYQKLFDFSLPGDRTIVICCSGNLSITQAVLSQLRRDLAGHFDINLHSLPTMYDLARYLGQKVRQLQESDRDWLKQDGIDFYCNFLLGGQIRGGPIELYLVYGQGNCIHATPETPYLQIGETKYGKPILDRTISFDTSLDMAAKCALMSLDSTMRSNLSVGPPLNLARYERDSLVAPMLVQFPAGHEYLVEMRRRWEISLKDAFMRLPDIDWSRQLMRSLSPVSESVP	not soluble
MTYDYVIVGGGIVGVSTGWQLKRRYPEKSVLLIEKEAGFSRHQTGHNSGVIHAGVYYAPGSLKADFCKRGVERTLAFCAQHNIPVENCGKLLVATNEQELERMHALYDRCLQNQIDVEKLDAAQLKLAEPNIRGLGAILVKATSIVNYRLVTEKMAEAFMQLGGDVKIGTEVVGLEETPSSITLTCQQKNQRVSYQAKFLVTCSGLMADRLTKMLGLPTDFQIIPYRGEYYRLAPKHNQVVRHLIYPIPDPELPFLGVHLTRMIDGCVTVGPN	not soluble
MTYELAIGDRAYSSWSLRGWLLFDAFGLPVRVRRARLYTDELPALLADFAPARTVPAMKTSAGTVVAESLAIAEELASRHPEAGIWPADPEHRAVARALAAEMHAGFGALRSHCPMNLRVSYEGCDPPEAVQADLARLERIWAEARARCSTEGPWLCGSYSAADVFFAPVAARIAGYGLAVSPEAQAYVAAHLAHPSFRRWRAMGAVDGADQEFYARPYPPRPWPGPAPLPARAVADGVAENDACPYSGAPVTDLLEIEGRIFGFCNPFCRDKTVADPEAWPAFTALLRHREGS	not soluble
MTYGVISWWDYGHWIEAVAHRMPIANPFQAGIGNKYNNVPGASSFFTAENESYAEFVAEKLNVKYVVSDIEMETGKYYAMAVWAEGDLPLAEKYYGGYFYYSPTGTFGYANSQWDIPLNSIIIPLRIPSELYYSTMEAKLHLFDGSGLSHYRMIYESDYPAEWKSYSSQVNLNNESQVLQTALYEAVMRARYGVSPTLEHHHHHH	not soluble
MTYKGYLIDLDGTIYKGKDRIPAGEDFVKRLQERQLPYILVTNNTTRTPEMVQEMLATSFNIKTPLETIYTATLATIDYMNDMKRGKTAYVIGETGLKKAVAEAGYREDSENPAYVVVGLDTNLTYEKLTLATLAIQKGAVFIGTNPDLNIPTERGLLPGAGAILFLLEKATRVKPIIIGKPEAVIMNKALDRLGVKRHEAIMVGDNYLTDITAGIKNDIATLLVTTGFTKPEEVPALPIQPDFVLSSLAEWDFDER	soluble
MVAIFDICAYFNNSILVIVDIIMTELLEPAARASTQETLTDQIFKKIQSAIVSGEIAAGSKISEPELARVYGISRGPLREAIHRLEGQKLVERTAHVGARVVSLSHQQLRELYQIRENLEGLACRLAAQSIDKQQILNLRDVLHLHAQDPDFKEGKGYYLQEGQDDFHYCIIKNCGNKTLEKMLCDELYHLIRMYRVQYSKTPNRPHRALSEHLHILNAIAEGDTELAELLMRRHIAASYRNIEQHFI	not soluble
MVAKDYPFYLTVKRANCSLEAPLGSGVAKDEEPSNKRVKPLSRVTSLANLIPPVKTTPLKRFSQTLQRSISFRSESRPDILAPRAWSRNATSSSTKRRDSKLWSETFDVCVNQVLTAKEIKRQEAIFELSQGEEDLIEDLKLAKKAYHDPMLKLSIMTEQELNQIFGTLDSLIPLHEELLSQLRDVRKPDGSTEHVGPILVGWLPCLSSYDSYCSNQVAAKALLDHKKQDHRVQDFLQRCLESPFSRKLDLWNFLDIPRSRLVKYPLLLREILRHTPNDNPDQQHLEEAINIIQGIVAEINTKTGESECRYYKERLLYLEEGQKDSLIDSSRVLCCHGELKNNRGVKLHVFLFQEVLVITRAVTHNEQLCYQLYRQPIPVKDLTLEDLQDGEVRLGGSLRGAFSNNERVKNFFRVSFKNGSQSQTHSLQANDTFNKQQWLNCIRQAKETVLSAAGQAGLLDSEGLVQGPGTENREPQGETKLEQMDQSDSESDCSMDTSEVSLECERMEQTDASCANSRPEESV	soluble
MVDGFVQPVGEGLADQLVGHQVGYGGVQWDQCLAEVGDVAVVHFFHQAVRQVGFVEQGVEAVVAGEQRRRGEEELLGDLQHRLDPFLDAGFAGHAVGGVEQVRYLFDVGVDEAGEYVFRVLALRLDGAMQVGQAAGYQISQVTVAGFAEVRLLDEFTEGSGVHGVSHTTGMVKKRRNIAGGARRLRRDCHNRFVVMRG	not soluble
MVDIVKRRDWEKKEKKKIAIERIDTLFTLAERVARYSPDLAKRYVELALEIQKKAKVKIPRKWKRRYCKRCHTFLIPGVNARVRLRTKRMPHVVITCLECGYIMRYPYLREVKQKRKKAT	soluble
